From publication doi:10.1101/2024.05.01.590489 (bioRxiv, 2024)

Molecular target: AAV9 capsid (adeno-associated virus serotype 9 (AAV9), UniProt Q6JC40)
Experiment: far-Western, overlay or dot blot

B1: mAb3-7 (antibody, V domains shown)
VH: QVQLQESGPGLVKPSETLSLTCTVSGGSISNYYWNWIRQPPGKGLEWIGYVHYSGSTNYNPSLKSRVSVSVDTSKNQFSLNLGSVTAADTAVYYCARQSRSYYNEVITDPKYNFDYWGQGTLVTVSS
VL: QSALTQPASVSGSPGQSITISCTGTSSDVGGYDYVSWYQQHPGKAPKLMIYDVSNRPSGVSNRFSGSKSGNTASLTISGLQAEDEADYYCSSYTSISTLVFGGGTKLTVL
binding result: binds

B2: mAb1-2 (antibody, V domains shown)
VH: EVQLVESGGGLVQPGGSLRLSCAASGFIFSNYWMSWVRQAPGKGPEWVANIKQDGSANHYVDSVKGRFTISRDNAKNSLYLQMNSLRAEDTAVYYCAREAYQDWNYDYWGQGTLVTVSS
VL: DIQMTQSPSSLSASVGDRVTVTCRASEFISRYLNWYQQKPGKAPKVLIYAASSLQSGVPSRFSGSGSGTDFTLTISSLQPEDFATYYCQQSYSTPYTFGQGTKLEIK
binding result: binds

B3: mAb3-6 (antibody, V domains shown)
VH: EVQLVESGGGLVQPGGSLRLSCSASGFHFSSYEMNWVRQAPGKGLEWVSYISSSGTYIDYADSVKGRFTISRDNPANSLYLQMYSLRAEDTAVYYCARRLWFGELPYSYYYGMDVWGQGTTVTVSS
VL: ALTQPASVSGSPGQSITISCTGTSSDIGGYNYVSWYQQHPGKAPELLIFDVSNRPSGVSNRFSGSKSGNTASLTISGLQAEDEADYHCCSYTRTSTVIFGGGTKLTVL
binding result: binds

B4: mAb2-3 (antibody, V domains shown)
VH: VQLVESGGGLVKPGGSLRLSCATSGFTFSDYYMSWIRQAPGKGLEWVSYISSSGSTIYYADSVKGRFTMSRDNAKNSLFLRMNSLRAEDTAVYYCARDQITVDREVIRAHYYYGMDVWGQGTTVTVS
VL: DIQMTQSPSSVSASVGDRVTITCRASQGINSYLAWYQQKPGKAPKLLIYAASSLESGVPSRFSGSGSGTDFTLTISSLQPEDFATYYCQQANSFPLTFGGGTKVDI
binding result: binds

B5: mAb2-1 (antibody, V domains shown)
VH: EVQLLESGGGLVQPGKSLRLSCAASGFSFSNYAMSWVRQAPGKGLEWVSGISGSGGSTNYAESVRGRFTISRDNSKNTLYLEMNSLRVEDTAVYYCAKGMSYYDRSGYFWAKYHYGMDVWGQGITVTVSS
VL: not shown
binding result: binds

B6: mAb3-3 (antibody, V domains shown)
VH: QVQLQESGPGLVKSSETLSLTCTVSGESISSSSHYWGWIRQPPGKGLEFLGNVYYLGSTYYNPSLESRVTILLDTSKNQFSLKVNSVTVADTAVYYCARHGAGSYSGLFFDYWGQGARVIVSS
VL: DIQMTQSPSFVSASVGDRVNITCRASQGINSWLAWYQQKPGKAPKLLIYSASSLQSGVPSRFSGSGSGTDFTLTISTLQPEDFATYYCQQANSFPYTFGQGTKVD
binding result: binds

B7: mAb3-2 (antibody, V domains shown)
VH: EVQLLESGGGLVQPGGSLRLSCAASGFTFSNYAMSWVRQAPGKGLEWVSLISGSGGSIDYADSVKGRFTISRDNSKNTLYLQMDSLRAEDTAVYYCSKDPIYYDLSGYYAGRIYYFDYWGQGTLVTVSS
VL: EIVMTQSPATLSVSPGDTATLSCRASHSVSRDLAWYQQKPGQAPRLLIYDASTRATGIPARFSGSGSGTEFTLTISSLQSEDFAVYYCQQYINWVTFGPGTKVDIE
binding result: binds

B8: mAb2-2 (antibody, V domains shown)
VH: QVQLQESGPGLVKPSVTLSLTCTVSGDSISTYYWSWVRQPPGKGLEWIGYIYYSGNTNYNPSLKSRVTMSVDTSKNQFSLKLNSVTAADTAVYYCARTHHDYGDYRPSYYFDYWGQGTLVTVSS
VL: QSALTQPASVSGSPGQSITISCTGTSSDVGAYDYVSWYQQHPGKAPKLMIYDVSNRPSSGVSNRFSGSKSGNTASLTISGLQAEDEADYYCSSYTSSSTVILGGGTKLTVL
binding result: binds

B9: mAb1-3 (antibody, V domains shown)
VH: VQLVESGGGVVQPGRSLRLSCAASGFSFSSFVFHWVRQAPGKGLEWVAVISYDGSNKNYADSVKGRFTISRDNSKNTLFLQMNSLSADDTAVYYCARGAICSSTTCYLGDSYYFYGMDVWGQGTTVTVSS
VL: LTQPPSVSGAPGQRVTISCTGSRSNIGAGYDVHWYQQLPGTAPKLLIYGNSNRPSGVPDRFSGSKSGTSASLAITGLQTDDEADYYCQSYDSSLSGSVFGGGTKLTVL
binding result: binds

B10: mAb2-4 (antibody, V domains shown)
VH: EVQLLESGGGLVHPGGSLRLSCAASGFPFSNFAMSWVRQAPGKGLEWVSTISGSSGSTYYADSVRGRFTISRDYSKNTVYLEMNSLRADDTAIYYCAKDRMITFGEVIVKHYDAFEIWGQGTRVAV
VL: DIQMTQSPSSLSASVGDRVTITCRASQTISTNVNWYQQKPGKAPKLLIYAASSLQSGVPSRFSGSGSGTDFTLTISSLQPEDFATFYCQQSYSAPLTFGEGTKV
binding result: binds

B11: mAb3-4 (antibody, V domains shown)
VH: AVESGGGLVKPGGPLRLSCAASGFSLSDNYMTWIRQAPGKGLEWVSYISSSGSFINYADSVKGRFTISRDNAKNSLYLQMNSLRAEDTAVYYCARVLSSGGLTTSWRALWYFDVWGRGTLVTVS
VL: TVVTQEPSFSVSPGGTVTLTCGLTSGSVSTSYYPSWYQQTPGQTPRTLIYSTNIRSSGVPDRFSGSILGNKAALTITGAQADDECDYYCVLYMGSGIWVFGGGTKLTVL
binding result: binds

B12: mAb1-4 (antibody, V domains shown)
VH: QVQVVESGAEVKKPGASVKVSCKASGYAFTTYYMHWVRQAPGQGLEWMGLINPSGDSITYAQRFQGRVTMTKDTSTSTVYMELSSLRSEDTAIYYCARDPNVAFYYGSGNYYKDNAMDVWGQGTTVTVSS
VL: not shown
binding result: binds

B13: mAb1-7 (antibody, V domains shown)
VH: QVQLQESGPGLVKPSETLSLTCTVSGDSIRSYYWSWIRQPPGKGLEWIGHIYYSGSTNYKPSLKSRATILVDTSKNQFSLKLRSVTAADTAVYYCAREMTGVAGRGWDHWGQGTLVTVSS
VL: ALTQPPSASGTPGQRVTISCSGSSSNIGSNTVNWYQQLPGTAPKLLIFINNQRPSGVPDRFSGSKSGTSASLAISGLQSEDEADYYCTTWDGSLNGYVFGTRTEVTVL
binding result: binds

B14: mAb3-5 (antibody, V domains shown)
VH: EVQLVESGGGLVQPGGSLRLSCAASGFTFSNYGMNWVRQAPGKGLEWVSYISSGGTIYYADSVKGRFTISRDNAKNSVYLQMNSLRAEDTAVYYCARDPAYCGDDCYTIPAHYFDYWGQGTPVTVS
VL: DIQMTQSPSSLSASVGDRVTITCRTSQSISRYLNWYQQKPGKAPKLLIYAASSLQSGVPSRFTGSGSGTDFTLTISSLQPEDFATYYCQQSYSIPPVTFGQGTRVD
binding result: binds

B15: mAb1-1 (antibody, V domains shown)
VH: EVQLVESGGGLVKPGGSLRLSCAASGVPFSDAWMNWVRQAPGKGLEWVGRIKSKKDGGTADYAAPVKGRFSISRDDSKKMLYLHMNSLKTEDTAVYYCTTEPSGYCSNGLCYTGNYWGQGTLVTVSS
VL: QPVLTQSSSASASLGSSVKLTCTLSSGHITYIIAWHQQQPGKAPRYLMKLEDSGSYNKGSGVPDRFSGSSSGADRYLTISNLQFEDEADYYCETWDSYTRVFGGGTKLT
binding result: binds

B16: mAb2-6 (antibody, V domains shown)
VH: VQLLESGGALVQPGGSLRLSCAASGFSFSNYAMSWVRQAPGKGLEWVSTISASGGTTYFADSVKGHFTISRDNSKNTLYLQMDSLRAEDTAVYYCAKDPNYYDLSGYFLGGYYFDYWGQGTLVTVSS
VL: EIVLTQSPGTLSLSPGERATLSCRASQSVRSSYLAWYQQKPGQAPRLLIYGASSRATDIPDRFSGSGSGTDFTLTISRLEPEDFAVYYCQQYGTSPAFGGGTKV
binding result: binds

B17: mAb2-5 (antibody, V domains shown)
VH: EVQLVESGGGLVKPGGSPRLSCAASGFNFGSYSMNWVRQAPGKGLEWVSSISSSSSYIYYADSVKGRFTISRDNAKHSLYLQVNSLRAEDTAVYYCARDPTTYGYNSAWDKKGWYFDLWGRGTLLTVS
VL: VLTQPPSVSAAPGQMVTISCSGSSSNIGNDYISWYQQLPGTAPKLLIYDNNERPSGIPDRFSGSKSGTSATLGITGVQTGDEADYYCGTWDSSLSAWVFGEGTKLTVV
binding result: binds

B18: mAb1-5 (antibody, V domains shown)
VH: EVQLVESGGGLVKPGGSLRLSCAASGFMFSSYSMNWVRQAPGKGLEWVSSISRSDSYIDYADSVKGRFTISRDTAMNVLYLQMDSLRAEDTGVYYCARTHVFNMFREVINDDYYGMDVWGQGTTVTVS
VL: ALTQPASVSGSPGQSITISCTGTSSDFGIYNSVSWYQHHPGKAPKLMIFGVSNRPSGVSNRFSGSKSGNTASLSISGLQAEDEADYYCSSFTARSTVVFGGGTKLTVL
binding result: binds

B19: mAb3-1 (antibody, V domains shown)
VH: EVQLLESGGGLVQPGGSLRLSCEASGFTFSRYPMNWVRQAPGKGLEWVSHISASGGTTYYADTVKGRFSISRDNSKNTLYLEMNSLRAEDTAIYFCAKDYPPDEVTMIVVGMPYFDSWGLGTLVSVSS
VL: not shown
binding result: binds
